Measurements: FireProtDB (doi:10.1111/j.1432-1033.1994.tb18652.x)

B1: Guanyl-specific ribonuclease T1, P00651 (parent)
chain: MMYSKLLTLTTLLLPTALALPSLVERACDYTCGSNCYSSSDVSTAQAAGYQLHEDGETVGSNSYPHKYNNYEGFDFSVSSPYYEWPILSSGDVYSGGSPGADRVVFNENNQLAGVITHTGASGNNFVECT

Variants of: B1
Details: Aspergillus oryzae (strain ATCC 42149 / RIB 40), pH 6, Thermal, DSC, sodium acetate calcium acetate 20 mM 2 mM, Mops 50 mM, reversible: yes, structure 1RN1, whole UniProt chain shown; for ddG of mutation (higher = less stable) / heat capacity change of unfolding / unfolding free energy: 25 °C

Variant | ddG of mutation (higher = less stable) [kcal/mol] | heat capacity change of unfolding [kcal/mol/K] | Tm [°C] | change of melting temperature, mutant - wild type (higher = more stable) [°C] | unfolding enthalpy (calorimetric) [kcal/mol] | unfolding free energy [kcal/mol]
H66T | 0.26 | 0.98 | 56.7 | -0.5 | 100 | 
H118A | 0.62 | 0.98 |  |  |  | 7.19
Y71W |  | 0.98 | 55.9 | -1.3 | 107 | 8.56
Y68W W85Y | 1.03 | 0.98 | 53.7 | -3.5 | 91.8 | 6.76
W85Y | 0.93 | 0.98 | 54.3 | -2.9 | 91.8 | 6.88
Y68W | 0.14 | 0.98 | 56.6 | -0.6 | 96.1 | 7.67
Y71W W85Y | 0.91 | 0.98 | 52.8 | -4.4 | 95.1 | 6.91
H66T W85Y | 0.93 | 0.98 | 53.9 | -3.3 | 92.5 | 6.88
W85Y H118A | 1.53 | 0.98 | 53.2 | -4 | 87 | 6.26
Y50W | -1.24 | 0.98 | 58.8 | 1.6 | 106 | 9.03
Y50W W85Y | -0.29 | 0.98 | 56.6 | -0.6 | 101 | 8.1
